B1: Adenylate kinase, P07170 (parent)
chain: MSSSESIRMVLIGPPGAGKGTQAPNLQERFHAAHLATGDMLRSQIAKGTQLGLEAKKIMDQGGLVSDDIMVNMIKDELTNNPACKNGFILDGFPRTIPQAEKLDQMLKEQGTPLEKAIELKVDDELLVARITGRLIHPASGRSYHKIFNPPKEDMKDDVTGEALVQRSDDNADALKKRLAAYHAQTEPIVDFYKKTGIWAGVDASQPPATVWADILNKLGKD

Variants of: B1
Details: Saccharomyces cerevisiae (strain ATCC 204508 / S288c), Thermal, Fluorescence, reversible: yes, structure 2AKY, whole UniProt chain shown; for unfolding free energy / ddG of mutation (higher = less stable): 25 °C

Variant	unfolding free energy (pH 4.5, Acetic acid-NaOH 30 mM)	Tm (pH 4.5, Acetic acid-NaOH 30 mM)	unfolding enthalpy (van 't Hoff) (pH 4.5, Acetic acid-NaOH 30 mM)	unfolding free energy (pH 7.6, MOPS-NaOH 30 mM)	Tm (pH 7.6, MOPS-NaOH 30 mM)	unfolding enthalpy (van 't Hoff) (pH 7.6, MOPS-NaOH 30 mM)	unfolding free energy (pH 5, Acetic acid-NaOH 30 mM)	Tm (pH 5, Acetic acid-NaOH 30 mM)	unfolding enthalpy (van 't Hoff) (pH 5, Acetic acid-NaOH 30 mM)	ddG of mutation (higher = less stable) (pH 7.5, MOPS-NaOH 30 mM)	unfolding free energy (pH 7.5, MOPS-NaOH 30 mM)	Tm (pH 7.5, MOPS-NaOH 30 mM)	change of melting temperature, mutant - wild type (higher = more stable) (pH 7.5, MOPS-NaOH 30 mM)	unfolding enthalpy (van 't Hoff) (pH 7.5, MOPS-NaOH 30 mM)
T112H	0.72 kcal/mol	40.2 °C	31.1 kcal/mol	1.2 kcal/mol	42.9 °C	41.8 kcal/mol								
T79H							2.87 kcal/mol	46.8 °C	68.1 kcal/mol	2.15 kcal/mol	1.67 kcal/mol	46.6 °C	-1.1 °C	50.2 kcal/mol
N171D										2.15 kcal/mol	1.67 kcal/mol	47.1 °C	-0.6 °C	47.8 kcal/mol
I215F										1.91 kcal/mol	1.91 kcal/mol	40 °C	-7.7 °C	59.8 kcal/mol
V10I										1.2 kcal/mol	2.63 kcal/mol	46.2 °C	-1.5 °C	64.5 kcal/mol
